Here are results for 1 substance from US6033845.

For assay [1], the target named is 7B-maltose binding protein fusion protein (Feline Infectious Peritonitis Virus (Applicant's field isolate)) [MBP: P0AEX9]. Particulars: scale: colonies, mean less control, at 20 µg/ml 7B.
For assay [2], the target named is maltose binding protein (Escherichia coli (strain K12)) [MBP: P0AEX9].

“white blood cells from a cat known to have clinical FIP (cat #88) (cells without a defined receptor)” showed a No. of Colonies (T-cell colony stimulation, two days) in assay [1] of 31. In assay [2], the No. of Colonies (T-cell colony stimulation, two days) (colonies, mean less control) is -1.
